Laboratory results reported in PMC9482650, “Quantitative fragmentomics allow affinity mapping of interactomes” (Nature Communications, 2022).

Key:
Test in all cases: holdup assay
Set-up in all cases: key: below the threshold = too weak to quantify, mostly under pKd 3.1 to 4
[1] = target: MAGI2_4, Q86UL8
[2] = target: DLG1_1, Q12959
[3] = target: T1, NHERF3_1, Q5T2W1
T1 sequence (Q5T2W1 4-100, limits assumed, looked up): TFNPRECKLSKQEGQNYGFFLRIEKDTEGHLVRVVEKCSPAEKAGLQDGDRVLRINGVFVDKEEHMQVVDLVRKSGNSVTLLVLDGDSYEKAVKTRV

[4] = target: T2, RHPN1, Q8TCX5
T2 sequence (Q8TCX5 508-602, limits assumed, looked up): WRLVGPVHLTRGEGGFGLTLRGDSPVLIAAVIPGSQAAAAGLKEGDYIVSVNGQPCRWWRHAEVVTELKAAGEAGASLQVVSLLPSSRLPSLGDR

[5] = target: T3, GRIP1_5, Q9Y3R0
T3 sequence (Q9Y3R0 568-668, limits assumed, looked up): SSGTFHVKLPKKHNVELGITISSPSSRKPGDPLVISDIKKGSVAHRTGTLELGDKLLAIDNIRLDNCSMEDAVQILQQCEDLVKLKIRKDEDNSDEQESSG

[6] = target: T4, GRIP1_3, Q9Y3R0
T4 sequence (Q9Y3R0 247-346, limits assumed, looked up): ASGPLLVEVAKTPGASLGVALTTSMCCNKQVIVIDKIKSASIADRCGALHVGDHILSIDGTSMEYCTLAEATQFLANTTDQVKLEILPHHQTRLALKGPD

[7] = target: T5, HTRA4, P83105
T5 sequence (P83105 378-476, limits assumed, looked up): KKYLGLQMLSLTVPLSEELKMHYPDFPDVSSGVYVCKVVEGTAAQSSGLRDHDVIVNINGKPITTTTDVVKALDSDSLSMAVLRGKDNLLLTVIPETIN

[8] = target: PDZRN4_1, Q6ZMN7
[9] = target: Inadl_5, Q8NI35
[10] = target: GRIP2_5, Q9C0E4
[11] = target: LDB3, O75112
[12] = target: T6, DVL3, Q92997
T6 sequence (Q92997 244-331, limits assumed, looked up): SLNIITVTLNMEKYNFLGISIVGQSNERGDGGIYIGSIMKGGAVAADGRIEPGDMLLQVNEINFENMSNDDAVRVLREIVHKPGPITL

[13] = target: Inadl_2, Q8NI35
[14] = target: T7, APBA2_1, Q99767
T7 sequence (Q99767 563-664, limits assumed, looked up): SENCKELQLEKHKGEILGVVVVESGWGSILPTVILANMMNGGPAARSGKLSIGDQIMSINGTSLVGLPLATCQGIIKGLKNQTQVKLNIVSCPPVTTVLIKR

[15] = target: DLG4_1, P78352
[16] = target: MAGI1_1, Q96QZ7
[17] = target: MAGI1_2, Q96QZ7
[18] = target: T8, SNTG1, Q9NSN8
T8 sequence (Q9NSN8 52-150, limits assumed, looked up): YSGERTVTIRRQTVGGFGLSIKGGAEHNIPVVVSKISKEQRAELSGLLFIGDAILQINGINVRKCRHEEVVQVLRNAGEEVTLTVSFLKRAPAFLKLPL

[19] = target: T9, LNX2_2, Q8N448
T9 sequence (Q8N448 334-432, limits assumed, looked up): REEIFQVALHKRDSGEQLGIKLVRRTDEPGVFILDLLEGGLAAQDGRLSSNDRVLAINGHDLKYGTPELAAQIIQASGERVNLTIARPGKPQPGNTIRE

[20] = target: TJP2_1, Q9UDY2
[21] = target: T10, DLG3_1, Q92796
T10 sequence (Q92796 125-227, limits assumed, looked up): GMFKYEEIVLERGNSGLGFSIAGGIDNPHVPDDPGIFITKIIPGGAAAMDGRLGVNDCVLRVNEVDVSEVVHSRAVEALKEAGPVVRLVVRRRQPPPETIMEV

[22] = target: T11, ARHGEF11, O15085
T11 sequence (O15085 42-136, limits assumed, looked up): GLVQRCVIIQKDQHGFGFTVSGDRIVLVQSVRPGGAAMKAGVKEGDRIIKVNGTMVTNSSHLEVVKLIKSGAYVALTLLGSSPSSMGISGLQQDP

[23] = target: Inadl_4, Q8NI35
[24] = target: MAGI2_6, Q86UL8
[25] = target: FRMPD2_3, Q68DX3
[26] = target: Inadl_6, Q8NI35
[27] = target: FRMPD4, Q14CM0
[28] = plain residues with an end cap or a label only (N-terminal biotin on a linker: gsgsgs; C-terminal amide)
[29] = plain residues with an end cap or a label only (N-terminal biotin on a linker: ado-ado)
[30] = plain residues with an end cap or a label only (N-terminal biotin on a linker: ttds)
[31] = plain residues with an end cap or a label only (N-terminal biotin on a linker: ahx)

Inadl_5, Q8NI35, sequence (Q8NI35 673-780): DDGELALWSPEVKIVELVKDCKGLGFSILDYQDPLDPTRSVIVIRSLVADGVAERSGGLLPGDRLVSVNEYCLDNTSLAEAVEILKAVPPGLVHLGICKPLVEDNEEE
FRMPD4, Q14CM0, sequence (Q14CM0 67-160): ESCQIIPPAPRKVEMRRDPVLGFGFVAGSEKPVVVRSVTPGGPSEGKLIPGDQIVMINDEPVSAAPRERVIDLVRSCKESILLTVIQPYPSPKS
FRMPD2_3, Q68DX3, sequence (Q68DX3 1073-1166): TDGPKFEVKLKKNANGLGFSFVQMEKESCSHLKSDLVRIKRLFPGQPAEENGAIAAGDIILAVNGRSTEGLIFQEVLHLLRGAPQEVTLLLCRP
Inadl_2, Q8NI35, sequence (Q8NI35 238-335): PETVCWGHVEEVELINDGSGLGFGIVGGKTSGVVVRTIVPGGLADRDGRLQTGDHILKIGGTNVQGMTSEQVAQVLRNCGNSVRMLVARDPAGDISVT
MAGI1_1, Q96QZ7, sequence (Q96QZ7 1-106): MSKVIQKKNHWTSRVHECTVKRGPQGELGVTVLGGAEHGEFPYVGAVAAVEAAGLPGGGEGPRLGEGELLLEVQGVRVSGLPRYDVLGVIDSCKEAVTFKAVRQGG
DLG4_1, P78352, sequence (P78352 62-152): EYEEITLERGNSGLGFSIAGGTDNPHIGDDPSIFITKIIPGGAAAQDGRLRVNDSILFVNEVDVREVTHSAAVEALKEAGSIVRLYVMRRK
Inadl_6, Q8NI35, sequence (Q8NI35 1058-1167): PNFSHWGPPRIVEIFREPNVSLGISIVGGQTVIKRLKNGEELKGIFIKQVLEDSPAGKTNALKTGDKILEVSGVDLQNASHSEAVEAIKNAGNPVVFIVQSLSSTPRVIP
MAGI1_2, Q96QZ7, sequence (Q96QZ7 456-580): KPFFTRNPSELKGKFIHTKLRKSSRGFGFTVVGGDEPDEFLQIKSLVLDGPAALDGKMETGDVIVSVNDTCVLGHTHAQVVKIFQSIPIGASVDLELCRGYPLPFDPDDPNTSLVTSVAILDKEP
PDZRN4_1, Q6ZMN7, sequence (Q6ZMN7 213-318): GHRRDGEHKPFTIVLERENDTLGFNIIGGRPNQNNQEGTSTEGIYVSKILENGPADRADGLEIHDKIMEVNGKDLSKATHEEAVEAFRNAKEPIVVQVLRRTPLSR
MAGI2_6, Q86UL8, sequence (Q86UL8 1141-1229): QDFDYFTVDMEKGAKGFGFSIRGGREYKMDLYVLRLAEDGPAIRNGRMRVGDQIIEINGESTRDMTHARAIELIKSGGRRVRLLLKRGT
Inadl_4, Q8NI35, sequence (Q8NI35 547-651): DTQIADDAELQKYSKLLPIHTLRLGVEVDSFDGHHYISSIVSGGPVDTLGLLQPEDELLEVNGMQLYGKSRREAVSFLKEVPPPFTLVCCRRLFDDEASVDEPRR
GRIP2_5, Q9C0E4, sequence (Q9C0E4 544-642): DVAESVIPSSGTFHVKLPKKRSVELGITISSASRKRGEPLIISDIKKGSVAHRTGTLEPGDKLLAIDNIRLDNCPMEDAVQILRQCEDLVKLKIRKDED
LDB3, O75112, sequence (O75112 1-94): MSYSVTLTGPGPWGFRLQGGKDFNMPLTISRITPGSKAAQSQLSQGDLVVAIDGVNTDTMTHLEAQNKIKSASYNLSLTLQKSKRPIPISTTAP
TJP2_1, Q9UDY2, sequence (Q9UDY2 24-128): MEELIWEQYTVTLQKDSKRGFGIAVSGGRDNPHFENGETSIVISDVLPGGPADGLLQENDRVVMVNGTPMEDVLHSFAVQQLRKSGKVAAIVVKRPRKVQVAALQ
MAGI2_4, Q86UL8, sequence (Q86UL8 772-865): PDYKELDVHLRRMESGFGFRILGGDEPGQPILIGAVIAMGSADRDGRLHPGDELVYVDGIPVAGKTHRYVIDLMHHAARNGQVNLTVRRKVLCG

## ELIQDTSTSFSTTREW [ARAP3_int, Q8WWN8]
[1]; [28]
  pKd: below the threshold
[2]; [28]
  pKd: below the threshold
[3]; [28]
  pKd: below the threshold
[4]; [28]
  pKd: below the threshold
[5]; [28]
  pKd: below the threshold
[6]; [28]
  pKd: below the threshold
[7]; [28]
  pKd: below the threshold
[8]; [28]
  pKd: below the threshold
[9]; [28]
  pKd: below the threshold
[10]; [28]
  pKd: below the threshold
[11]; [28]
  pKd: below the threshold
[12]; [28]
  pKd: below the threshold
[13]; [28]
  pKd: below the threshold
[14]; [28]
  pKd: below the threshold
[15]; [28]
  pKd: below the threshold
[16]; [28]
  pKd: below the threshold
[17]; [28]
  pKd: below the threshold
[18]; [28]
  pKd: below the threshold
[19]; [28]
  pKd: below the threshold
[20]; [28]
  pKd: below the threshold
[21]; [28]
  pKd: below the threshold
[22]; [28]
  pKd: below the threshold
[23]; [28]
  pKd: below the threshold
[24]; [28]
  pKd: below the threshold
[25]; [28]
  pKd: below the threshold
[26]; [28]
  pKd: below the threshold
[27]; [28]
  pKd: below the threshold

## EEPEERHTEL [CES2, O00748]
[1]; [29]
  pKd: below the threshold
[2]; [29]
  pKd: below the threshold
[3]; [29]
  pKd: 4.72
[4]; [29]
  pKd: 4.19
[5]; [29]
  pKd: below the threshold
[6]; [29]
  pKd: below the threshold
[7]; [29]
  pKd: below the threshold
[8]; [29]
  pKd: 4.13
[9]; [29]
  pKd: below the threshold
[10]; [29]
  pKd: below the threshold
[11]; [29]
  pKd: below the threshold
[12]; [29]
  pKd: below the threshold
[13]; [29]
  pKd: below the threshold
[14]; [29]
  pKd: below the threshold
[15]; [29]
  pKd: below the threshold
[16]; [29]
  pKd: 3.5
[17]; [29]
  pKd: below the threshold
[18]; [29]
  pKd: 3.59
[19]; [29]
  pKd: below the threshold
[20]; [29]
  pKd: below the threshold
[21]; [29]
  pKd: below the threshold
[22]; [29]
  pKd: 4.64
[23]; [29]
  pKd: below the threshold
[24]; [29]
  pKd: 4.27
[25]; [29]
  pKd: below the threshold
[26]; [29]
  pKd: 3.87
[27]; [29]
  pKd: 4.04

## GGPKEEESPV [SLC16A1, P53985]
[1]; [30]
  pKd: below the threshold
[2]; [30]
  pKd: below the threshold
[3]; [30]
  pKd: 3.63
[4]; [30]
  pKd: below the threshold
[5]; [30]
  pKd: below the threshold
[6]; [30]
  pKd: below the threshold
[7]; [30]
  pKd: below the threshold
[8]; [30]
  pKd: below the threshold
[9]; [30]
  pKd: below the threshold
[10]; [30]
  pKd: below the threshold
[11]; [30]
  pKd: below the threshold
[12]; [30]
  pKd: below the threshold
[13]; [30]
  pKd: below the threshold
[14]; [30]
  pKd: below the threshold
[15]; [30]
  pKd: below the threshold
[16]; [30]
  pKd: below the threshold
[17]; [30]
  pKd: below the threshold
[18]; [30]
  pKd: 3.99
[19]; [30]
  pKd: below the threshold
[20]; [30]
  pKd: below the threshold
[21]; [30]
  pKd: below the threshold
[22]; [30]
  pKd: below the threshold
[23]; [30]
  pKd: below the threshold
[24]; [30]
  pKd: below the threshold
[25]; [30]
  pKd: below the threshold
[26]; [30]
  pKd: below the threshold
[27]; [30]
  pKd: below the threshold

## QGRWDHETIV [TMEM215, Q68D42]
[1]; [31]
  pKd: 4
[2]; [31]
  pKd: 4.84
[3]; [31]
  pKd: 4.07
[4]; [31]
  pKd: 4.59
[5]; [31]
  pKd: 3.55
[6]; [31]
  pKd: below the threshold
[7]; [31]
  pKd: 3.53
[8]; [31]
  pKd: 3.67
[9]; [31]
  pKd: 3.63
[10]; [31]
  pKd: below the threshold
[11]; [31]
  pKd: 3.47
[12]; [31]
  pKd: 3.69
[13]; [31]
  pKd: 4.22
[14]; [31]
  pKd: below the threshold
[15]; [31]
  pKd: 4.68
[16]; [31]
  pKd: below the threshold
[17]; [31]
  pKd: 3.84
[18]; [31]
  pKd: 4.7
[19]; [31]
  pKd: 5.07
[20]; [31]
  pKd: 3.68
[21]; [31]
  pKd: 4.34
[22]; [31]
  pKd: 4.04
[23]; [31]
  pKd: below the threshold
[24]; [31]
  pKd: 4.07
[25]; [31]
  pKd: 3.97
[26]; [31]
  pKd: 3.98
[27]; [31]
  pKd: 3.6
